Test system: MS2 coat protein
Assay: apparent KD of MS2 coat protein; designed switch direction (-1 OFF switch, 1 ON switch): 1; higher = weaker reporter binding
In short: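 Apparent KD, taken as the median over clusters for each design, was obtained by curve-fitting normalised cluster fluorescence. Designed RNA switches had been transcribed on Illumina chips by stalled E. coli RNA polymerase and titrated with SNAP-549-labelled MS2 coat protein, doubling from 0.7 or 1.5 nM to 3 µM.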

[1] = input ligand: microRNA oligo, concentration not stated
[2] = Eterna round: R95, input ligand: FMN 200 uM
[3] = Eterna round: R95, input ligand: microRNA oligo, concentration not stated
[4] = Eterna round: R95, input ligand: none

Sequence	apparent KD of MS2 coat protein (input ligand: FMN 200 uM) [nM]	apparent KD of MS2 coat protein [1] [nM]	apparent KD of MS2 coat protein (input ligand: none) [nM]	apparent KD of MS2 coat protein [2] [nM]	apparent KD of MS2 coat protein [3] [nM]	apparent KD of MS2 coat protein [4] [nM]
UUAAUGAUGUUAGGAUAUACAUGAGGAAUCCUCGUAGAAGGAACAUGACAUGAGGAUCACCCAUGUAGCGCUCCGUAGAGCGCA [JL SSNG1 1.18] (Eterna round: R96, puzzle: Same State NG 1)	2460	18.5	60.3	–	–	–
UUGGUUCUCGUAGGAUAUGUAGGAUAUUCCUACAUGAGGAUCACCCAUGUUCGCAUGGAAGAAGGACAGAAGGACGAUCACCAU [pwkr ssNG2 2FMN + 1F5.18] (Eterna round: R96, puzzle: Same State NG 2)	54.8	1.88	14	–	–	–
AUGGUGCAGGUACAGGAUAUGUUGCUCGUAACAUGAGGAUCACCCAUGUACCUAUGAGAAUAAAUGCAGAAGGGUGCACACCACG [Mat - Same State 2 - Mod of UCT - D92] (puzzle: Same State 2)	–	–	–	57	3220	156
GUGCGGCUGCCACAGGAUAUACGUGGAUCGACAUGAGGAUCACCCAUGUAUAUCCUAAUAAUUGCGUAGAAGGGUGGUCAGCCAG [Iserinqu] (puzzle: Same State 2)	–	–	–	90	332	469
GUGUUACAUGAGGAUCACCCAUGUUGUUGUAGAUAAGGAUAUAUGGUAACGAGAGAAAUAAUAGAAGGUAUUAGGC [JR_SS1_Sub061] (puzzle: Same State 1)	–	–	–	–	34.7	–
AGUCCAGCCUGAGCUGGACAAAAGCAUGUACAUGAGGAUCACCCAUGUUCAUGUACAAGCUUUUUGCUCGUCUUGUA [salish99_208a_r3_102x] (puzzle: Sensor for hsa-mir-208a)	–	–	–	367	17.2	483
CACAAUCUAUCUGAGGAUAUCAUGAAAAAAACAUGAGGAUCACCCAUGUGCAGGAAAACUGCAUAUGAGAAGGCAGAUAGAUUGG [salish99_SS2_r3_014] (Eterna round: R96, puzzle: Same State 2)	–	504	–	–	–	–
AUAAAACAUGAGGAUCACCCAUGUCAACAAAGUCGAGGAUAUGGGCAAAUAAAAUAAGAAUCAGAAGGCGAAUAAU [salish99_ss1_r3_030] (puzzle: Same State 1)	–	–	–	265	330	404
GGUCCAGCCUGAGCUGGACCGAAGCGUGUACAUGAGGAUCACCCAUGUCAUGUACAGGCUUUUUGCUCGUCUUAUUG [JL-shm-2.11 JL Mod] (puzzle: Sensor for hsa-mir-208a)	–	–	–	46.5	20.6	72.9
GGAGAACAUGAGGAUCACCCAUGUGGAUGGGCGCUAGGAUAUGCGAGAGGGUGGAGAGAAGCAGAAGGAGUGGAUA [JR_SS1_Sub037] (puzzle: Same State 1)	–	–	–	–	50.2	–
GCGGAGACGUCAGGAUAUCCAUGGAAGACACAUGAGGAUCACCCAUGUGGGAGGGAAACCAGGAGGGAGAAGGGACGGAAACGC [ssng2 v2 d] (Eterna round: R96, puzzle: Same State NG 2)	10	9.63	14.1	–	–	–
UGGUUGGAGAGAGAGGAUAUCCAAUUUUCAACAUGAGGAUCACCCAUGUAGAACGUAGGUAAUUGGGAGAAGGCUCAAGAGACAU [salish99_ss2_r3_100] (puzzle: Same State 2)	–	–	–	26.9	14.5	23.5
GGUAUCGACGCAGGAUAUGCUAUCCUUUGGGUAGCAGAAGGGUGAACAUGAGGAUCACCCAUGUGGGUGCCAGGGCGUGAGCCC [JL SSNG1 1.82] (Eterna round: R96, puzzle: Same State NG 1)	694	18.2	86.8	–	–	–
AGUCCAGCCUGAGCUGGACAAAAGUAUGUACAUGAGGAUCACCCAUGUCAUGUACAAGCUUUUUGCUCGUCUUAAAA [Zipper 46 - 14] (puzzle: Sensor for hsa-mir-208a)	–	–	–	287	23.6	377
UGAGCCGGCACUGAGGAUAUUCAUAUUAAAACAUGAGGAUCACCCAUGUAGGCCAGAAGGCCUUGGGAGAAGGCAGGUCGGCUCA [Mat - Same State 2 - Mod of UCT - D62] (puzzle: Same State 2)	–	–	–	–	200	–
GUAGGACAUGAGGAUCACCCAUGUGGGAGGGAACGAGGAUAUGUGAAAGGAUUGAAGAGGACAGAAGGCGUGGAGG [JR_SS1_Sub026] (puzzle: Same State 1)	–	–	–	–	30.1	–

Sequence	apparent KD of MS2 coat protein (input ligand: FMN 200 uM) [nM]	apparent KD of MS2 coat protein [1] [nM]	apparent KD of MS2 coat protein (input ligand: none) [nM]	apparent KD of MS2 coat protein [2] [nM]	apparent KD of MS2 coat protein [3] [nM]	apparent KD of MS2 coat protein [4] [nM]
UACAAUCUAUCUGAGGAUAUCAUGAAAAAAACAUGAGGAUCACCCAUGUGCAGGAAAACUGCAUAUGAGAAGGCAGAUAGAUUGA [salish99_SS2_r3_005] (Eterna round: R96, puzzle: Same State 2)	–	517	–	–	–	–
AGAUAGUGUGGAAAGGAUAUACUGUUGAGGACAUGAGGAUCACCCAUGUGGUAGAGGAGGUAAGGGUAGAAGGUUCGGGAUUGGU [JR_SS@_Sub019] (puzzle: Same State 2)	–	–	–	32.6	34.5	47.1
GGAGCCGGCACCGAGGAUAUUCAUAUUAAAACAUGAGGAUCACCCAUGUAGAGCGAAAGCUCUUGGGAGAAGGCGGAUCGGCUCG [Xeonanis - 28] (Eterna round: R96, puzzle: Same State 2)	34.6	488	665	–	–	–
ACGCAGCUAGGUGAGGAUAUCGGUGGUAAAACAUGAGGAUCACCCAUGUCCGAAGCUCGGACUUCCGAGAAGGCGCCCGGCUGCA [Velaberi] (puzzle: Same State 2)	–	–	–	13.9	64.2	96.2
GAGUUACUAUCUCAGGAUAUCAUGUCAAAGACAUGAGGAUCACCCAUGUACCAGGAAACUGGUUAUGAGAAGGGAGAUAGUAACG [Mat - Same State 2 - Mod - D52] (puzzle: Same State 2)	–	–	–	112	116	154
UUAAUAAAUCAAGGAUAUCACGUCGAAUAGACGUGAGAAGGUGAUCAUAACAUGAGGAUCACCCAUGUAUUACAUGAAUAUUAA [SSNG1/1-B1] (Eterna round: R96, puzzle: Same State NG 1)	522	40	512	–	–	–
UUUUUGAUCCGAGGAUAUCCUUUUUUCUUACAUGAGGAUCACCCAUGUAAAGGGAUUGAGUUGUAGGAGAAGGCGGUUUUUGUU [JR_SSNG2_Sub059] (Eterna round: R96, puzzle: Same State NG 2)	19.8	28.3	35	–	–	–
UCUUGGUUUUUGCUCGUUUUUUGUGUUGAACAUGAGGAUCACCCAUGUAUUGUACAAUCCAGUUUAAUAAUGGUCCG [JMF 49] (puzzle: Sensor for hsa-mir-208a)	–	–	–	105	87.3	130
AAAAAACAUGAGGAUCACCCAUGUCAAAAGACGUGAGGAUAUGUACAGACUUCGGUCUGUACAGAAGGCACGAAAA [SS1 - 1037] (Eterna round: R96, puzzle: Same State 1)	17.6	19.1	26.9	–	–	–
GGAGAGAGAGCGCAGGAUAUUCGAGGAGAAACAUGAGGAUCACCCAUGUGAGAGAGAGAGGAGAAGGAGAAGGGUGAGAGAGAGG [Altered State 2-14 - Jieux - Same State 2] (puzzle: Same State 2)	–	–	–	147	34.9	32.6
GCGGAGAGGUAAGGAUAUCCAUGGCAUAGACAUGAGGAUCACCCAUGUAGGAGACGAAUUAGGAGGGAGAAGGUACCGGGACGC [AK SSNG2-V2-19.1] (Eterna round: R96, puzzle: Same State NG 2)	120	81.2	179	–	–	–
AGAUGUUAAUUAGGAUAUGGACACAUGAGGAUCACCCAUGUAACGUAGAUACGAUGUGGUCAAGUCUAGAAGGGAUAGCUAACA [SameState NG2 #76] (Eterna round: R96, puzzle: Same State NG 2)	39.9	35.2	40.3	–	–	–
ACUUAGUACAAUUUAGAUCUACAUGAGGAUCACCCAUGUACUGAGGAUAUCAGCUCGAUUAGAGCUGAGAAGGCAGAAGUACUU [SSNG3/8-A2] (Eterna round: R96, puzzle: Same State NG 3)	45.4	159	220	–	–	–
AGCUAUCGAAAACGAUAGCAAAAGCAUGUACAUGAGGAUCACCCAUGUCAUGUAUAAGCUUUUUGCUCGUCUUAAAA [Zipper 23 - 12] (puzzle: Sensor for hsa-mir-208a)	–	–	–	42.7	9.86	34.4
GGUCCAGCCUGAGCUGGACAAAAGCAUGUACAUGAGGAUCACCCAUGUCGUGUACAAGCUUUUUGCUCGUCUUAAAA [JL mod - D87 - 5] (puzzle: Sensor for hsa-mir-208a)	–	–	–	215	13.9	296
AGUCCAGCCUGAGCUGGACAAAAGCAUGUACAUGAGGAUCACCCAUGUCAUGUACAAGCUUUUUGCUCAAAAUAAUA [Mat - hsa-mir-208a - Mod of JL - D33] (puzzle: Sensor for hsa-mir-208a)	–	–	–	957	14.8	607

— the supplement of paper PMC9170038
